Test results taken from paper PMC9198364 (Molecular Therapy. Methods & Clinical Development, 2022).

Experiments:
[1] = target: adeno-associated virus (AAV) 9 capsid (recombinant AAV9 particles) (adeno-associated virus 9, UniProt Q6JC40 1-736); test: SPR
[2] = target: AAVPHP.eB capsid (recombinant AAVPHP.eB particles) (adeno-associated virus 9 (parental serotype)) (UniProt Q6JC40); test: SPR

B1: soluble AAV receptor (AAVR) extracellular fragment containing PKD1-5 (domain or fragment)
chain: RKNRPPIAIVSPQFQEISLPTTSTVIDGSQSTDDDKIVQYHWEELKGPLREEKISEDTAILKLSKLVPGNYTFSLTVVDSDGATNSTTANLTVNK
Work on B1 yielded a Kd [1] of 138 nM and a Kd [2] of 274 nM.
